Results on one protein are retold here after PMC6697681, “The predominance of nucleotidyl activation in bacterial phosphonate biosynthesis” (Nature Communications, 2019).

This data set deals with the molecule itself. The data set can be described thus: dynamic light scattering; 20 µl of freshly purified protein (8 mg/ml) at 20 °C, DynaPro NanoStar; self-association (oligomeric state).

Broadly, the stoichiometry N is a count of units in the complex or per binding partner.

B1: Tde1415 (Tde-PntC; two-domain protein with an N-terminal PntC and a C-terminal AEPT domain) from Treponema denticola (enzyme, Treponema denticola ATCC 35405)
chain: MIKQAVILAGGLGSRLKDKTKTMPKGFLEIGGTAIVEQSVQKLLAHGIEKIVIGTGHCNEYYDNLAKKYPAIITVKNENYANTGSMGTLEVCASFVNESFLLLESDLIYDSAGLFSLINDERKNLILASGATKSGDEVYLEADEKNCLTGLSKNRDALKNIFGELVGITKLTKSTLDKMCAYAKIHHSDLPKMEYEHALLEAAKTIPVAIKRIEYFVWREIDNEDHLEMAVKNIYPHIVENEKLRAVRREVLLNPGPATTTDSVKYAQVSADICPREKAFGDLMQWLCDELKLFALASETNPDEYETVMFGCSGTGADEVMVSSCVPDTGRLLVIDNGSYGARMAKIADIYKIPMDIFKSSTYEPLDLQKLEAEFATKKYTHLACVYHETTTGLLNPLHIICPMAKKYGMVTIVDAVSAYCGMPMDLKSLGIDFMASTSNKNIQGMAGVGFVICNKAELEKTKDYPMRNYYLNLYDQYAYFAKTHQTRFTPPVQTMYALRQAVLETKQETVQKRYERYTACWNILVAAIKKLGLKMLVKEEHQSHFITAILEPETPKYSFEALHDFAAEHSFTIYPGKLGNIDTFRIANIGDIQPEEMRRFTVKLKEYMNGIGVGV
notes: Tde1415 (Tde-PntC) from T. denticola ATCC 35405, NCBI NP_992021; N-terminal PntC cytidylyltransferase domain joined to a C-terminal AEP transaminase (AEPT) domain; predicted monomeric molecular weight ~70 kDa; gene subcloned without its stop codon as NdeI/NotI fragment into pET21b (pGH3000); Dimer by DLS; source: E. coli BL21(DE3), purified (Ni-NTA, HiTrap Q FF anion exchange)
Regarding B1, the “stoichiometry N” value was 2.
